Measured values: the nanobody polyreactivity screen of Harvey et al. (2022)

Experiment: yeast display, Sf9 membrane polyspecificity reagent, FACS + sequencing; frameworks hold sequencing errors
Summary of the method: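 Sorting gates, low and high (top ~1%), were placed on anti-HA fluorescence to track expression and on streptavidin fluorescence to track reagent binding. A clone's polyreactivity label is taken from the gate it came out of. The reagent was 10% biotinylated, detergent-solubilized Sf9 membrane, applied for 1 hour at 4 °C to galactose-induced yeast display cells.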
For “QVQLVESGGGLVQAGGSLRLSCAASGFTFAYNAMGWYRPAPGKERELVAAITTRTGTTYYADSVKGRFTISRDNAKNTVYLQMNSLKPEDTAVYYCAKRGYYRYYYWGQGTLVTVSS”, the “polyreactivity (PSR sort gate)” value was “high polyreactivity”.
In the case of “QVQLVESGGGLVQAGGSLRLSCAASGFTFAYNAMGWYRQAPGKEREFVAAITSSGGSTYYADSVKGRFTISRDYAKNTVYLQMNSLKPEHTAVYYCNAYYTFPRYQYGYWGQGTQVTVSS”, the “polyreactivity (PSR sort gate)” value is reported as “high polyreactivity”.
For “QVQLVESGGGLVQAGGSLRLSCAASGFTFAYYAMGWYRQAPGKERELVAAISERGGSTYYADSVKGRFTISRDNAKNTVYLQMNSLKPEDTAVYYCARTFWDYPWYQSSYYSWGQGTQVTVSS”, the “polyreactivity (PSR sort gate)” value was “low polyreactivity”.
With “QVQLVESGGGLVQAGGSLRLSCAASGFTFAYYAMGWYRQAPGKERELVAAISSGGGSTYYADSVKGRFTISRDNAKNTVYLQMNSLKPEDTAVYYCATTIQISYDSIWYDYWGQGTQVTVSS” the “polyreactivity (PSR sort gate)” value was “high polyreactivity”.
In the case of “QVQLVESGGGLVQAGGSLRLSCAASGFTFDANAMGWYRQAPGKERELVAAITRFGSTFYADSVKGRFTISRDNAKNTVYLQMNSLKPEDTAVYYCNAARDHVSGYDYWGQGTQVTVSS”, the “polyreactivity (PSR sort gate)” value is reported as “low polyreactivity”.
For “QVQLVESGGGLVQAGGSLRLSCAASGFTFDAYDMGWYRQAPGKERELVAAISWRGIDTTYADSVKGRFTISRDNAKNTVYLQMNSLKPEDTAVYYCAEFVSDATVGPSKGLDYWGQGTQVTVSS”, the “polyreactivity (PSR sort gate)” value was “low polyreactivity”.
In the case of “QVQLVESGGGLVQAGGSLRLSCAASGFTFDAYTMGWYRQAPGKERELVAAINWSGDTTYYADSVKGRFTISRDNAKNTVYFQMNSLKPEDTAVYYCAAVWWIYGVWFDYWGQGTQVTVSS”, the “polyreactivity (PSR sort gate)” value is reported as “high polyreactivity”.
For “QVQLVESGGGLVQAGGSLRLSCAASGFTFDFYAMGWYRPAPGKERELVAAISRSGGRTYYADSVKGRFTISRDNAKNTVYLQMNSLKPEDTAVYYCNTGFFYYNFRYYYWGQGTQVTVSS”, the “polyreactivity (PSR sort gate)” value was “low polyreactivity”.
With “QVQLVESGGGLVQAGGSLRLSCAASGFTFDGYAMGWDRQAPGNERELVAAFSDSGDSTYYADSVKGRFTISRDNAKNTVYLQMNSLTPEDTAVYYCAAGLGYYWSDYFAYDSCGQGTQVTVSS” the “polyreactivity (PSR sort gate)” value was “low polyreactivity”.
With “QVQLVESGGGLVQAGGSLRLSCAASGFTFDHYAMGWYRQAPGKERELVARITGTGDSTYYADSVKGRFTISRDNAKNTVYLQRNSLKPEDTAVDYCNADRRYDFYDGYGYWGQGTQVTVSS” the “polyreactivity (PSR sort gate)” value was “low polyreactivity”.
In the case of “QVQLVESGGGLVQAGGSLRLSCAASGFTFDKYAMGWYRQAPGKERELVAAISNSGGRTYYADSVKGRFTISRDNAKNTVYLQMNSLKPEDTAVYYCTIFKDYDYWGQGTQVTVSS”, the “polyreactivity (PSR sort gate)” value is reported as “high polyreactivity”.
For “QVQLVESGGGLVQAGGSLRLSCAASGFTFDNYAMGWYRQAPGKERELVAAINWSGDRTYYADSVKGRFTISRDNAKNTVYLQMNSQIPEDTAVYYCNAVTSWAGSLDYWGQGTQVTVSS”, the “polyreactivity (PSR sort gate)” value was “high polyreactivity”.
For “QVQLVESGGGLVQAGGSLRLSCAASGFTFDPDAMGWYRQAPGKERELVASITWSGDNTYYADSVKGRFSISRDNAKTTVYLQMNSLKPEDTAVYYCNVEWAWWSTRYDSWGQGTQVTVSS”, the “polyreactivity (PSR sort gate)” value was “high polyreactivity”.
For “QVQLVESGGGLVQAGGSLRLSCAASGFTFDSNVMGWYRQAPGKEREVVAAITGDDTTYYADSVKGRFTISRDNAKNTVYLQMNSLKPEDTAVYYCAADETESLEYTAYDMYYWGQGTQVTVSS”, the “polyreactivity (PSR sort gate)” value was “low polyreactivity”.
For “QVQLVESGGGLVQAGGSLRLSCAASGFTFDSYAMGWYRQAPGKERELVASISSSGSTNYADSVKGRFTISRDNAKNTVYLQMNSLKPEDTAVYYCAAESRYPFIYEYWGQGTQVTVSS”, the “polyreactivity (PSR sort gate)” value was “low polyreactivity”.
For “QVQLVESGGGLVQAGGSLRLSCAASGFTFDTYDMGWYRQAPGKERELVAAIDWSGVSTYYADSVKGRFTISRDNAKNTVYLQMNSLKPEDTAVYYCAADLWQYDIASWDYTYDYWGQGTQVTVSS”, the “polyreactivity (PSR sort gate)” value was “low polyreactivity”.
For “QVQLVESGGGLVQAGGSLRLSCAASGFTFDWNAMGWYRQAPGKERELVAAISNSDGSTYYADSVKGRFTISRDNAKNTVYLQMNSLKPEDTAVYYCNKLYRGGWYAYWGQGTQVTVSS”, the “polyreactivity (PSR sort gate)” value was “low polyreactivity”.
For “QVQLVESGGGLVQAGGSLRLSCAASGFTFDYNAMGWYRQAPGKERELVAVISSSGSRTYYADSVKGRFTISRDIAKITVYLQINSLNPEDTAVYYCAAARIGTRDYWGQGTQVSVSS”, the “polyreactivity (PSR sort gate)” value was “high polyreactivity”.
With “QVQLVESGGGLVQAGGSLRLSCAASGFTFDYNTMGWYRQAPGKEIELVAGISRGGGSTYYADSVKGRFTISRDNAKNTVYLQMNSLKPEVTAVYYCNTVLKRQRKNEYWGQGTQVTVSS” the “polyreactivity (PSR sort gate)” value was “high polyreactivity”.
For “QVQLVESGGGLVQAGGSLRLSCAASGFTFDYYAMGWYRQAPGKERELVAAISWSGSTTYYADSVKGRFTISRDNAKNTVYLQMNSLKPEDTAVYYCATNLDRPFDYWGQGTQVTVSS”, the “polyreactivity (PSR sort gate)” value was “high polyreactivity”.
For “QVQLVESGGGLVQAGGSLRLSCAASGFTFDYYAMGWYRQAPGKERELVAAITSDGSTYYADSVKGRFTISRDNAKNTVYLQMNSLKPEDTAVYYCAADGISLYATAYDYWGQGTQVTVSS”, the “polyreactivity (PSR sort gate)” value was “low polyreactivity”.
For “QVQLVESGGGLVQAGGSLRLSCAASGFTFEEYAMGWYRQAPGKERELVAAIDYTVGSTYYADSVKGRFTISRDNAKNTVYLQMNSLKPEDTAVYYCNVDLSYSFNSAYGYWGQGTQVTVSS”, the “polyreactivity (PSR sort gate)” value was “low polyreactivity”.
With “QVQLVESGGGLVQAGGSLRLSCAASGFTFEKNAMGWDRQAPGKERELGAAISRGGSTYADSVKGRFTISRDNAKNTVHLQINSLKPEDTAVYYCAADTVYIFSSAINGEFGDWGQGTQVTVSS” the “polyreactivity (PSR sort gate)” value was “low polyreactivity”.
For “QVQLVESGGGLVQAGGSLRLSCAASGFTFEKYSMGWYRQAPGKERELVAAITQSAGSTYADSVKGRFTISRDNAKNTVYLQMISLKPEDTAVYYFAARYRYPYYARYGYWGQGTQVTVSS”, the “polyreactivity (PSR sort gate)” value was “high polyreactivity”.
With “QVQLVESGGGLVQAGGSLRLSCAASGFTFEWYTMGWYRQAPGKERELVADISGDGTTYYADSVKGRFTISRDNAKNTLYLQMNSLKPEDTAVYYCAARTVGRKAGFDYWGQGTQVTVSS” the “polyreactivity (PSR sort gate)” value was “high polyreactivity”.
With “QVQLVESGGGLVQAGGSLRLSCAASGFTFEYNAMGWYRQAPGKERELVAAISRSGGSTYYADSVKGRFTISRDNAKNTVYLQMNSLIPEDTAVYYCAAEPYPLPSYGYWGQGTQVTVSS” the “polyreactivity (PSR sort gate)” value was “high polyreactivity”.
In the case of “QVQLVESGGGLVQAGGSLRLSCAASGFTFEYYAMGWYRQAPGKEREFVAAISARGDSTYYADSVKGRFTISRDNAKNTVYLQMNSLKPEDSAVYYCAKKTSPRRYYYWGQGTQVTVSS”, the “polyreactivity (PSR sort gate)” value is reported as “high polyreactivity”.
In the case of “QVQLVESGGGLVQAGGSLRLSCAASGFTFFDNAMGWYRQAPGKERELVAVISSGGRTYYADSVKGRFTISRDNAKNTVYLQMNSLTPEDTAVYYCNAARAQRVKYDYWGQGTQVTVSS”, the “polyreactivity (PSR sort gate)” value is reported as “high polyreactivity”.
With “QVQLVESGGGLVQAGGSLRLSCAASGFTFFGNAMGWYRQAPGKERELVAAITGRAGRTYYADSVKGRFTISRDNAKNTVYLQMNSLKPEDTAVYYCAAKIRTSDMGYWGQGTQVTVSS” the “polyreactivity (PSR sort gate)” value was “high polyreactivity”.
In the case of “QVQLVESGGGLVQAGGSLRLSCAASGFTFFHNAMGWYRQAPGKERELVAAITSGGNTYYADSVKGRFTISRDNAKNTVYLQMNSLKPEDTAVYFCNAVISRVVRYEYWGQGTQVTVSS”, the “polyreactivity (PSR sort gate)” value is reported as “high polyreactivity”.
In the case of “QVQLVESGGGLVQAGGSLRLSCAASGFTFFHYAMGWYRQAPGKERELVAAIDYSAGSTYYADSVKGRFTISRDNAKNTVYLQMNSMKPEDTAVYYCAADARTSRGRRYYYWGQGTQVTVSS”, the “polyreactivity (PSR sort gate)” value is reported as “low polyreactivity”.
In the case of “QVQLVESGGGLVQAGGSLRLSCAASGFTFFKYAMGWYRQAPGKERELVAAISSSGGSTYYADSVKGRFTISRDNAKNTVYLQMNSLKPEDTAVYYCNRPAAVYFKLVTAYDYWGQGTQVTVSS”, the “polyreactivity (PSR sort gate)” value is reported as “high polyreactivity”.
With “QVQLVESGGGLVQAGGSLRLSCAASGFTFFLYAMGWYRQAAGKERELGAAINSRGGSTYYADSVKGRFTLSRDNAKNTVYLQMNSLKPEDTAVYYCAAYIPRSYCGYDYGGQGTQVTVSS” the “polyreactivity (PSR sort gate)” value was “high polyreactivity”.
With “QVQLVESGGGLVQAGGSLRLSCAASGFTFFLYAMGWYRQAPGKERELVARISSGRDTYYADSVKGRFTISRDNAKKTVYLQMNSLKPEDTAVYYCAVAFWFGYRYYYWGQGTQVTVSS” the “polyreactivity (PSR sort gate)” value was “high polyreactivity”.
With “QVQLVESGGGLVQAGGSLRLSCAASGFTFFPNAKGWYRQAPGKERELVADITDGGSTNYADSVKGRFTISRDNAKNTVYLQMNSLKPEDTAVYYCNADWYGWFGGYEYWGQGTQVTVSS” the “polyreactivity (PSR sort gate)” value was “high polyreactivity”.
With “QVQLVESGGGLVQAGGSLRLSCAASGFTFFRYAMGWYRQAPGKERELVASITSGGSTNYADSVKGRFTISRDNAKNTVYLQMNSLKPEDTAVYYCAAGSSFFRWVYEATGFYYWGQGTQVTVSS” the “polyreactivity (PSR sort gate)” value was “high polyreactivity”.
In the case of “QVQLVESGGGLVQAGGSLRLSCAASGFTFFRYAMGWYSQAPGKERELVATITRGGSTNYADSVKGRFTISRDNAKNTVYLQMNSLQPVDTAVYYCNKDKKTPTFDYWGQGTQVTVSS”, the “polyreactivity (PSR sort gate)” value is reported as “low polyreactivity”.
With “QVQLVESGGGLVQAGGSLRLSCAASGFTFFVYAMGWYRQAPGKERELVAVITSGGTTNYADSVKGRFTISRDNAKNTVYLQMNSLKPEDTAVYYCATDNGGIPKYVPYDFWGQGTQVTVSS” the “polyreactivity (PSR sort gate)” value was “high polyreactivity”.
With “QVQLVESGGGLVQAGGSLRLSCAASGFTFFYNAMGWYRQAPGKEREFVAAISGRGGTTYYADSVKGRFTISRDNAKNTVYLQMNSLKPEDTAVYYCAAYYRGYAYNYWGQGTQVTLSS” the “polyreactivity (PSR sort gate)” value was “high polyreactivity”.
In the case of “QVQLVESGGGLVQAGGSLRLSCAASGFTFFYVYTMGWYRQAPGKEREFVAAIDWTGRTYYADSVKGRFTISRDNAKNTVYLQMNSLKPEDTAVYYCNADVAPGIFYGYDSWGQGTQVTVSS”, the “polyreactivity (PSR sort gate)” value is reported as “low polyreactivity”.
With “QVQLVESGGGLVQAGGSLRLSCAASGFTFGDYAMGWYRQAPGKERELVAAITSTGGSTYYADSVKGRFTISRDNEKHSVYLQMNCLKPEDTAVYYCAKPDYYRMGYWGQGTQVTVCS” the “polyreactivity (PSR sort gate)” value was “low polyreactivity”.
With “QVQLVESGGGLVQAGGSLRLSCAASGFTFGDYAMGWYRQAPGKEWELVAAISWSAGSTYYADSVKGRFTISRDNAKNTVYVQMNSLKPEDTAVYYCAADDSATIEDDYWGQGTQVTVSS” the “polyreactivity (PSR sort gate)” value was “high polyreactivity”.
In the case of “QVQLVESGGGLVQAGGSLRLSCAASGFTFGENAMGWYRQAPGKERELVATISDSGDSTYYADSVKGRFTISRDNAQNTVYLQMNSLKPEDTAVYYCAAPLPHRGYDEGYWGQGTQVTVSS”, the “polyreactivity (PSR sort gate)” value is reported as “low polyreactivity”.
